From patent publication US20240043507A1 (RQ BIOTECHNOLOGY, published 2024) come the findings set out here.

For assay [1], the target named is T1, SARS-CoV-2 receptor binding domain, native (501N) (SARS-CoV-2, UniProt P0DTC2 330-532).
T1 construct: range 330-532
The assay can be described thus: BLI, RBD immobilised on AR2G biosensor, 1:1 fit. On the technique in general: In BLI a coated tip is dipped into the sample, and binding shifts an interference pattern.

Assay [2] concerns the target T2, SARS-CoV-2 spike receptor binding domain, native (SARS-CoV-2, UniProt P0DTC2 330-532).
T2 construct: range 330-532
The assay can be described thus: BLI, RBD on AR2G biosensor, mAb as analyte.

Assay [3] concerns the target T3, SARS-CoV-2 receptor binding domain (RBD), native (SARS-CoV-2, UniProt P0DTC2 330-532).
T3 construct: range 330-532
The assay can be described thus: crystal structure.

Residue numbers refer to the chain shown, from its start.

B1: Fab of antibody 318 (Fab, V domains shown)
VH: QVQLVQSGPEVKKPGTSVKVSCKASGFTLTSSAMQWVRQARGQRLEWIGWIVVGSGNTNYAQKFQERVTITRDMSTSTAYMELSSLRSEDTAVYYCAAGRGYNSDFDYWGQGTLVTVSS
VL: AIRMTQSPGTLSLSPGERATLSCRASQSVSSSYLAWYQQRPGQAPRLLIYGTSSRATGIPDRFSGSGSGTDFTLTISRLEPEDFAVYYCQQYGYSVYTFGQGTKVDIK
The term Kd denotes a measure of binding affinity in units of concentration. With B1, in assay [1], the Kd was 2.23 nM.

B2: antibody 318 (antibody, V domains shown)
VH: B1 VH
VL: B1 VL
notes: also called mAb 318
Regarding B2, the affinity in assay [2], expressed as Kd, was 4.43 nM.

B3: Fab 75 (Fab, V domains shown)
VH: QVQLVESGGGVVQPGRSLRLSCAASGFTFNNYPLHWVRQAPGKGPEWVAVISQDGGNKYYVDSVKGRFTISRDNSKNTLYLQMNNLRAEDTALYYCARDVVVVVAARNHYYNGMDVWGQGTTVTVSS
VL: DIQLTQSPSSVSASVGDRVTITCRASQGISSWLAWYQQKPGKAPKLLIYAVSSLQSGVPSRFSGSGSGTDFTLTISSLQPEDFATYYCQQAKSFPFTFGPGTKVEIK
notes: Fab
For B3, the binding result in assay [3] is “binds”.

B4: Fab of antibody 316 (Fab, V domains shown)
VH: not shown
VL: QAVLTQPPSASGSPGQSVTISCTGTSSDVGGYNYVSWYQQHPGKAPKLMIYEVSKRPSGVPDRFSGSKSGNTASLTVSGLQAEDEADYYCSSYAGSNHWVFGGGTKLTVL
notes: also called 316 Fab; Fab 316
In assay [1], B4 showed a Kd of 1.5 nM.

B5: Fab of antibody 398 (Fab, V domains shown)
VH: QVQLVESGGGLVQPGGSLRLSCAASGFTVSSNYMTWVRQAPGKGLEWVSVIYSGGSTYYADSVKGRFTISRDNSKNTLYLQMNSLRADDTAVYYCARDSTADYDFWSGYYVGAFHIWGQGTMVTVSS
VL: B4 VL with A2T, P8A, A10V, V18I, S54T, H98N
B5 registered a Kd in assay [1] of 1.02 nM.

B6: antibody 398 (antibody, V domains shown)
VH: B5 VH
VL: B4 VL with A2T, P8A, A10V, V18I, S54T, H98N
notes: also called mAb 398
In assay [2], B6 registered a Kd of 4.63 nM.

B7: Fab of antibody 88 (Fab, V domains shown)
VH: QLQLQESGPGLVKPSQTLSLTCTVSGGSISSGSYNWTWIRQPAGKGLEWIGRIYNSGSTNYNPSLKSRVTISVDTSKNQLSLKVRSVTAADTAVYYCARHCSGGTCYPKYYYGMDVWGQGTTVTVSS
VL: QSALTQPPSVSEAPRQRVTISCSGSSSNIGNNAVNWYQQFPGKAPKLLIYYDDLLPSGVSDRFSGSKSGTSASLAISGVQSEDEADYYCAAWDDSLNVVVFGGGTKLTVL
notes: also called 88 Fab; Fab 88
Molecule B7 gave a Kd in assay [1] of 0.64 nM.

B8: antibody 88 (antibody, V domains shown)
VH: B7 VH
VL: B7 VL
notes: also called mAb 88
With B8, in assay [2], the dissociation constant (Kd) worked out at 2.9 nM.

B9: antibody 253H165L (antibody, V domains shown)
VH: not shown
VL: DIVMTQSPGTLSLSPGERATLSCRASQSVRSSYLAWYQQKPGQAPRLLIYGASRRGTGIPDRFSGSGSGTDFTLTISRLEPEDFAVYYCQQYGSSPWTFGQGTKVEIK
B9: the Kd in assay [2] was 3.38 nM.

B10: antibody 165 (antibody, V domains shown)
VH: QVQLVQSGPEVKKPGTSVKVSCKASGFTFTSSAVQWVRQARGQRLEWIGWIVVGSGNTNYAQKFQESVTITRDMSTSTAYMELSSLRSEDTAVYYCAAPHCIGGSCHDAFDIWGQGTMVTVSS
VL: B9 VL
notes: also called mAb 165
The molecule B10 registered a Kd in assay [2] of 2.15 nM.

B11: Fab of antibody 269 (Fab, V domains shown)
VH: QVQLVESGGGLIQPGGSLRLSCAASGLTVNRNYMSWIRQAPGKGLEWVSVIYSGGSTFYADSVKGRFTISRDNSKNTLSLQMNSLRAEDTAIYYCARDFYEGSFDIWGQGTMVTVSS
VL: AIQLTQSPSFLSASIGDRVTITCRASQGISSYLAWYQQKPGKAPKLLIYAASTLQSGVPSRFSGSGSGTEFTLTISSLQPEDFASYYCQQLNSYPAPVFGPGTKVDIK
notes: also called 269 Fab; COVOX-269
The molecule B11 returned a Kd in assay [1] of 1.59 nM.

B12: antibody 269 (antibody, V domains shown)
VH: B11 VH
VL: B11 VL
notes: also called mAb 269
For B12, in assay [2], binding was characterised by a dissociation constant (Kd) of 0.76 nM.

B13: Fab of antibody 175 (Fab, V domains shown)
VH: EVQLVESGGGLIQPGGSLRLSCAASGLTVSRNYMSWVRQAPGKGLEWVSLIYSGGSTYYADSVKGRFTISRDNSKNTLYLQMNSLRAEDTAVYYCARDLRGEVWGQGTMVTVSS
VL: not shown
Regarding B13, the affinity in assay [1], expressed as Kd, was 0.97 nM.

B14: antibody 175 (antibody, V domains shown)
VH: B13 VH
VL: not shown
notes: also called mAb 175
In assay [2], B14 returned a Kd of 1.36 nM.

B15: Fab of antibody 58 (Fab, V domains shown)
VH: QVQLVESGGGLVQPGRSLRLSCAASGFTFDDYAMHWVRQPPGKGLEWVSGVSWNSGTIGYADSVKGRFIISRDNAKNSLYLQMNSLKAEDTALYYCAREVGGTFGVLISREGGLDYWGQGTLVTVSS
VL: SYELTQPPSVSVAPGQTARITCGGNTIGSKSVHWYQQRPGQAPVLVVYDDSDRPSGIPERFSGSNSGNTATLTISRVEAGDEADYYCQVWDSSSDRVVFGGGTKLTVL
Take B15: the Kd in assay [1] turned out to be 0.3 nM.

B16: antibody 58 (antibody, V domains shown)
VH: B15 VH
VL: B15 VL
notes: also called mAb 58
In assay [2], B16 came in with a Kd of 1.46 nM.

B17: Fab of antibody 222 (Fab, V domains shown)
VH: EVQLVESGGGLIQPGGSLRLSCAASGLTVSSNYMSWVRQAPGKGLEWVSVIYSGGSTFYADSVKGRFTISRDNSKNTLYLQMNSLGAEDTAVYYCARGEGSPGNWFDPWGQGTLVTVSS
VL: DVVMTQSPGTLSLSPGERATLSCRASQSVPSSYLAWYQQKPGQAPRLLIYGASTRATGIPDRFSGSGSGTDFTLTISRLEPEDFAVYYCQHYDTSPRFGGGTKVDIK
Take B17: binding in assay [1] was characterised by a dissociation constant (Kd) of 0.29 nM.

B18: antibody 278 (antibody, V domains shown)
VH: QVQLVQSGAEVKKPGASVKVSCKASGYIFIRYGISWVRQAPGQGLEWMGWISANNGYTNYAQKLQGRVTMTTDTSTSTAYMELRSLRSDDTAVYYCARDGGILTGYLDYFDHWGQGTLVTVSS
VL: DIQMTQSPSSLSASVGDRLTITCRASQSIASYLNWYQQKPGKAPKLLIYAASSLQSGVPSRFSGSGSGTDFTLTISSLQPEDFATYHCQQSYSTLGITFGPGTKVDIK
notes: also called mAb 278
B18 yielded a Kd in assay [2] of 4.16 nM.

B19: Fab of antibody 281 (Fab, V domains shown)
VH: QVQLVESGGGLVQPGGSLRLSCAASGFPFSIYWMSWVRQAPGKGLEWVANIKQDGSEKYYVDSVKGRFTISRDNAKNSLYLHMNSLRGEDTAVYYCASRYYDFRPEAWFDYWGQGTLVTVSS
VL: not shown
In assay [1], B19 displayed a Kd of 3.2 nM.

B20: antibody 281 (antibody, V domains shown)
VH: B19 VH
VL: not shown
As for B20, in assay [2], binding was characterised by a dissociation constant (Kd) of 0.97 nM.

B21: Fab of antibody 158 (Fab, V domains shown)
VH: EVQLLESGGDLIQPGGSLRLSCAASGVTVSSNYMSWVRQAPGKGLEWVSIIYPGGSTFYADSVKGRFTISRDNSKNTLYLQMHSLRAEDTAVYYCARDLGSGDMDVWGKGTTVTVSS
VL: DIVMTQSPSFLSASVGDRVTITCRASQGISSYLAWYQQKPGKAPKLLIQAASTLQSGVPSRFSGSGSGTEFTLTISSLQPEDFATYYCQQLNSYRYTFGQGTKVEIK
notes: also called 158 Fab; Fab 158
For the molecule B21, in assay [1], binding was put at a Kd of 0.53 nM.

B22: antibody 158 (antibody, V domains shown)
VH: B21 VH
VL: B21 VL
notes: also called mAb 158
For the molecule B22, the affinity in assay [2], expressed as Kd, was 1.89 nM.

B23: Fab of antibody 40 (Fab, V domains shown)
VH: QVQLVESGGGLVQPGGSLRLSCAVSGFTVSRNYMSWVRQAPGKGLEWVSLIYSGGSTFYADSVKGRFTISRDNSKNTLYLQMNSLRAEDTAVYYCARDLFHRSGYHDYWGQGTLVTVSS
VL: not shown
notes: also called 40 Fab; Fab 40
B23 gave a Kd in assay [1] of 0.55 nM.
